Experimental data published in the supplement of paper PMC10724198.
± gives the standard deviation of the averaged measurements.

Each sequence was assayed on Saccharomyces cerevisiae (assay: protein stability index of tFT-peptide fusion (C-terminal peptide) (PSI (0-1 scale)); higher = more stable (slower turnover)). Settings: genetic background: wild type; temperature: 30 C.
Experimental: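 Multiplexed protein stability (MPS) profiling in S. cerevisiae. Random 12-aa peptides (tFT-X12 library) are fused to the C-terminus of a sfGFP-mCherry tandem fluorescent timer, after mCherry and a GGGS linker. Cells are FACS-sorted into 8 mCherry/sfGFP bins and deep-sequenced. The protein stability index (PSI) is the read-weighted bin average, scaled from 0 (unstable) to 1 (stable). Only peptides with >10 reads are reported; cells were grown at 30 °C in SC-His with glucose.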
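Also: PSI is a weighted mean of sequencing reads over stability bins, variants kept only with over 10 reads, mCherry proximal and sfGFP distal, peptide attached via GGGS linker.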

| Sequence | protein stability index |
| --- | --- |
| AAEKSPQQADAD | 0.709 ± 0.013 |
| AAGDLGNKCGWG | 0.68 ± 0.025 |
| AAGRSNTEPGDH | 0.69 ± 0.057 |
| AAHLLPSIHGYL | 0.669 ± 0.076 |
| AAKGSVRLFHVF | 0.561 ± 0.017 |
| AAMQCSRASTSS | 0.634 ± 0.077 |
| AAPDLARPPLLR | 0.685 ± 0.018 |
| AAPEGLRRDRGA | 0.571 |
| AAPGWDGTIGCG | 0.753 ± 0.043 |
| AAPHDVARPTTR | 0.689 ± 0.015 |
| AAPSPRPTPLPS | 0.698 ± 0.025 |
| AAPSTSPGPRPA | 0.652 ± 0.01 |
| AARRRLFSPCSP | 0.626 ± 0.1 |
| ACGTFSDSMSQL | 0.691 ± 0.11 |
| ACIWRCFDAAMG | 0.632 ± 0.019 |
| ACKVIMSVGRRL | 0.644 ± 0.064 |
| ACSPPPPPTLLF | 0.686 ± 0.012 |
| ADDDTGYPPTRT | 0.669 ± 0.061 |
| ADPWSFKIVKEL | 0.542 ± 0.028 |
| ADSWACSWLLFR | 0.613 ± 0.065 |
| ADVVVGWWVSGW | 0.791 ± 0.1 |
| AEERTSETRYKN | 0.656 ± 0.0079 |
| AEIINRVKSRSK | 0.731 ± 0.074 |
| AEKTKAEKNITK | 0.752 ± 0.022 |
| AELAMGVSDMYS | 0.6782 ± 0.0013 |
| AEQLALSQLSYV | 0.687 ± 0.0099 |

| Sequence | protein stability index |
| --- | --- |
| AERKDKNRKKKR | 0.705 ± 0.023 |
| AESSLSLFPPPP | 0.756 ± 0.059 |
| AETALGVCGVLC | 0.785 ± 0.11 |
| AETYASFHLTDP | 0.712 ± 0.042 |
| AFALFVGKVLRC | 0.566 ± 0.021 |
| AFFRLSLPGARA | 0.654 ± 0.011 |
| AFPSCCFFLSLS | 0.662 ± 0.073 |
| AFPSSLVFFFYT | 0.651 ± 0.033 |
| AFRGGGVPGDFA | 0.624 ± 0.024 |
| AFSRCITVRVVH | 0.498 ± 0.032 |
| AFYVLPPSPLTR | 0.665 ± 0.013 |
| AGADCSHCVVDV | 0.696 ± 0.0096 |
| AGAEHRERVGQS | 0.896 ± 0.056 |
| AGAGRLRGGGVN | 0.6767 ± 0.0017 |
| AGAICWFRHILI | 0.67 ± 0.14 |
| AGCGGGVTASGA | 0.688 ± 0.055 |
| AGCRCHSKKAAT | 0.624 ± 0.027 |
| AGCSVVGRWCLW | 0.742 ± 0.1 |
| AGDGCGDWGRLS | 0.761 ± 0.11 |
| AGEGRLGDNIKG | 0.6794 ± 0.004 |
| AGFCFVALSLPL | 0.629 ± 0.048 |
| AGGGAAGPAGWV | 0.6728 ± 0.0036 |
| AGGGAVWQGQQD | 0.725 ± 0.024 |
| AGGGLGVVLGWW | 0.7054 ± 0.0038 |
| AGHACGSLRGHP | 0.682 ± 0.034 |
| AGHLLDVRLLVL | 0.487 ± 0.057 |

| Sequence | protein stability index |
| --- | --- |
| AGIFGGGRGGSV | 0.697 ± 0.0048 |
| AGMIRKGQYRGG | 0.68 ± 0.054 |
| AGPDGDWREPRP | 0.57 ± 0.069 |
| AGQTLARLYTRS | 0.614 ± 0.12 |
| AGRFSPLPPHFI | 0.707 ± 0.035 |
| AGSCVRLGGPEW | 0.745 ± 0.052 |
| AHDRLPSTRLVC | 0.581 ± 0.086 |
| AHLGRDVGRGTW | 0.729 ± 0.062 |
| AHNRQRPEPDAR | 0.636 ± 0.031 |
| AHRLTKVIILFG | 0.67 ± 0.1 |
| AHRSIFSASSLL | 0.668 ± 0.084 |
| AISPAPRVSPTP | 0.786 ± 0.052 |
| AISPHPPPALTP | 0.6872 ± 0.0027 |
| AISPLLPSFSPP | 0.665 ± 0.037 |
| AKGVYFPIKGIY | 0.6436 ± 0.004 |
| AKREGGGYSEDN | 0.664 ± 0.086 |
| AKWGGDGCGARM | 0.764 ± 0.082 |
| ALAPCLPESIGN | 0.676 ± 0.057 |
| ALAPLISLSFLS | 0.68919 ± 0.00059 |
| ALAQQSPLPTRP | 0.703 ± 0.011 |
| ALDACLYLSSGL | 0.637 ± 0.0097 |
| ALFCLLLPPPSP | 0.724 ± 0.008 |
| ALFFCLFGRVMW | 0.488 ± 0.023 |
| ALFLDFCFPCLP | 0.619 ± 0.011 |
| ALGQWGCAELHG | 0.709 ± 0.0075 |
| ALGRRGPEDWSG | 0.707 ± 0.031 |

| Sequence | protein stability index |
| --- | --- |
| ALPARFSSFRLP | 0.678 ± 0.019 |
| ALPFPASTSPLS | 0.701 ± 0.048 |
| ALPPSFPRPFSF | 0.703 ± 0.036 |
| ALPTLALPPCRS | 0.73 ± 0.1 |
| ALRLLLFISKSP | 0.6119 ± 0.0013 |
| ALRRKPRPRYPP | 0.621 ± 0.051 |
| ALRSGHALPFGF | 0.667 ± 0.021 |
| ALSFISYPFPLL | 0.642 ± 0.1 |
| AMGSDRPPQSGY | 0.695 ± 0.012 |
| ANRTIFWGRVRN | 0.721 ± 0.05 |
| ANYGSCSLGYVL | 0.74 ± 0.062 |
| APAAPLPVVSPD | 0.752 ± 0.073 |
| APAPHSPNFPFS | 0.699 ± 0.008 |
| APAPPPVSSASL | 0.665 ± 0.013 |
| APARASPPPPPP | 0.633 ± 0.012 |
| APHLPGHLTRPP | 0.686 ± 0.086 |
| APLFPLTPLAPP | 0.733 ± 0.017 |
| APLPASPPIPSS | 0.662 ± 0.12 |
| APLPRRQFPLSP | 0.687 ± 0.011 |
| APLSPSAPPPPP | 0.709 ± 0.031 |
| APPLPHSSSGSL | 0.698 ± 0.028 |
| APPPLCCPPLAP | 0.735 ± 0.1 |
| APPPPLPPPPSP | 0.689 ± 0.092 |
| APPPPPPPPPPP | 0.63 ± 0.056 |
| APPPPPPPRLTF | 0.695 ± 0.076 |
| APPPPVAEAARG | 0.667 ± 0.032 |

| Sequence | protein stability index |
| --- | --- |
| APPPREAATSIA | 0.699 ± 0.036 |
| APPRPCFSALTL | 0.726 ± 0.076 |
| APPRPTRSHSAL | 0.657 ± 0.043 |
| APRFDLVLPHVF | 0.721 ± 0.07 |
| APRRPPQHPTLL | 0.626 ± 0.038 |
| APRSPSLRSRHP | 0.743 ± 0.018 |
| APRTRLCVHEIP | 0.686 ± 0.01 |
| APSPPRAPLPPA | 0.689 ± 0.047 |
| AQELPGGAGGDG | 0.659 ± 0.031 |
| AQSFRGVLLDVT | 0.706 ± 0.05 |
| AQTTRGGRRGDE | 0.657 ± 0.034 |
| AQYSTPSPMGQT | 0.671 ± 0.044 |
| ARCLETKPVMNA | 0.666 ± 0.03 |
| ARFVAGLTKVDV | 0.65 ± 0.029 |
| ARGGTAVYKAAG | 0.668 ± 0.02 |
| ARGRSACGKLIY | 0.654 ± 0.017 |
| ARKGVDFSRVIG | 0.6472 ± 0.0059 |
| ARLAVTLLISPS | 0.604 ± 0.016 |
| ARLGSVFLDPSG | 0.64833 ± 0.0003 |
| ARLPPPRPLPPP | 0.748 ± 0.13 |
| ARLPVPPLLCPF | 0.71 ± 0.061 |
| ARPFPPLSPPPP | 0.655 ± 0.078 |
| ARPPLARITRPS | 0.686 ± 0.015 |
| ARPPLSHPRPPL | 0.788 ± 0.057 |
| ARPPSLLLLASF | 0.6475 ± 0.0058 |
| ARPSPPAILVPS | 0.586 ± 0.017 |

| Sequence | protein stability index |
| --- | --- |
| ARRAWPPPTPLF | 0.719 ± 0.058 |
| ARRCRPVFRHAI | 0.639 ± 0.007 |
| ARRGLVWTEGGG | 0.718 ± 0.011 |
| ARSRLAPLSVLA | 0.548 ± 0.029 |
| ARSTGATSEHKQ | 0.667 ± 0.062 |
| ARTSPRSPTFPP | 0.69 ± 0.066 |
| ASARLRPDCPYL | 0.645 ± 0.074 |
| ASAWLGLCGWVL | 0.674 ± 0.018 |
| ASENESDDEKLF | 0.7 ± 0.071 |
| ASLAPTLPPPPQ | 0.677 ± 0.021 |
| ASLEASFYVVPC | 0.641 ± 0.014 |
| ASNSSGHTTRAS | 0.6727 ± 0.003 |
| ASPFTYPDFFFP | 0.661 ± 0.046 |
| ASPLPPPSHLSL | 0.741 ± 0.021 |
| ASRISTAFPVPP | 0.685 ± 0.057 |
| ASSHSFPDAPSL | 0.73 ± 0.046 |
| ASSLHFLYLPAL | 0.709 ± 0.062 |
| ASTTSYNITLEC | 0.679 ± 0.17 |
| ASVLSTQDPGEY | 0.676 ± 0.055 |
| ASVWSLPSIVLT | 0.519 ± 0.074 |
| ASWEARGWLGWA | 0.794 ± 0.05 |
| ATGGGSFKRRVS | 0.53 ± 0.014 |
| ATGHQMTMYDNR | 0.708 ± 0.069 |
| ATHISCRRNRLY | 0.57 ± 0.039 |
| ATLVRTTWSCHG | 0.669 ± 0.014 |
